Results reported in US20080075733A1.

Biological target: Fc receptor on THP-1 cells
Experiment: cell-based or functional assay

TNF-α secretion from THP-1 cells on coated wells (10 µg/well, heat aggregated): > 40 ng/well
Substance: human IgG1 (heat aggregated, coated on wells) (antibody)
